For one substance, stoichiometry N results are on record in article PMC3613427.

For assay [1], the target named is formate channel FocA from Vibrio cholerae (Vibrio cholerae). Briefly: SEC-MALS. On the technique in general: SEC sorts molecules by how far they enter the pores of the column.
Assay [2] shares this target. Kind of assay: crystal structure.

For orientation: stoichiometry N means the number of molecules, sites or subunits per partner or assembly. Take “formate channel FocA from Vibrio cholerae (natural protein)”: the stoichiometry N in assay [1] and in assay [2] was 5 in each case.
